Values joined by “and” are separate entries in the source; they are usually repeats but may differ in a detail not shown here. Equal values may be shown once. No end group written: not given here.
Tests used:
[1] = molecular target: T1, PaAP (Pseudomonas aeruginosa, UniProt Q02PA2, A513L/Q514V/S515P); test: Peptide digestion assay (overnight and time course, LC-MS/MALDI); type: biochemical; conditions: for substrate of / degraded by PaAP (words): incubated with PaAP overnight, LC–MS or MALDI; for P0 (parent peptide, LC–MS signal): 500 μM peptide, 1 μM PaAP_T
T1 construct: PaAP (WT, residues 27–536); His6 (TEV cleavable) (N, cleaved yes); made in house; host or cells: E. coli SHuffle T7
Protocol: A variety of peptides of varying lengths and compositions were incubated with PaAP at room temperature. Assays were performed by incubating (overnight at room temperature) 500 μM of substrate (peptides) with 1 μM enzyme (PaAP) in reaction buffer (50 mM Tris, pH 8.5, 100 mM NaCl). The reactions were quenched by heating to 100 °C for 10 min followed by centrifugation at 17,000g in a benchtop centrifuge to remove precipitate. Supernatant was collected and samples were analyzed by LC–MS. Initial trial assays were carried out in the presence and absence (control) of enzyme to determine if the substrate was degraded (single or triplicate experiments). Time-course assays were performed on selected peptide substrates in triplicate. A 300 μl reaction (including 500 μM of substrate) was initiated by the addition of 1 μM enzyme. The reaction was incubated at room temperature. The reaction was quenched at set timepoints by the removal of 30 μl aliquots, which were immediately heated to 100 °C for 10 min. The samples were analyzed by LC–MS using a Xevo Q-ToF (Waters) as described below, searching for masses of all peptide breakdown products.
Peptide degradation time courses were fitted to exponential equations as follows:
P0 peptide consumption was fitted to a single exponential equation (equation (2)) with the format2 yt=y0−Plateaue^−kt+Plateau
Time courses for the formation and decay of peptide intermediates were fitted to double exponential equations (equation (3)) and single exponential equations, followed by a linear phase (4)3 yt=y0−Plateau1e^−k1t+y0−Plateau2e^−k2t+Plateau 4 yt=y0−Plateaue^−kt+vt+Plateau where y(t) is the product formed at time t, y0 − Plateau is the amplitude of the exponential phase, k is the observed rate constant for the exponential phase, y0 is the value of y at time 0, Plateau is the value of y after exponential phase, C is the offset and v is the slope of the linear phase.
Peptide samples incubated in the presence and absence of PaAP were initially analyzed by MALDI. The peptide sample (0.5 µl at 10 µM) was spotted along with matrix (0.5 µl 10 mg ml^−1 α-cyano-4-hydroxycinnamic acid in ACN/0.1% TFA (50/50, vol/vol)) on a stainless steel MALDI plate and left to dry. The sample plate was loaded into a Sciex 4800 MALDI mass spectrometer. The laser voltage was adjusted to give a good signal to noise strength, and 50 shots were acquired in a random pattern across the spot and spectra combined. The spectra were externally calibrated with Sciex Pepcal mix (range: 500–4,000 m/z).

[2] = molecular target: T2, PaAP_T (P. aeruginosa aminopeptidase, C-terminal truncated) (Pseudomonas aeruginosa, UniProt Q02PA2); test: Inhibition of PaAP_T in the Leu-pNA aminopeptidase assay (KI, IC50); type: biochemical; conditions: for IC50 plot data (PaAP_T activity at given peptide concentration): (S) = 2 mM, PaAP 100 nM
T2 construct: PaAP (WT, residues 27–536); His6 (TEV cleavable) (N, cleaved yes); made in house; host or cells: E. coli SHuffle T7
T2 sequence (Q02PA2 whole entry, looked up): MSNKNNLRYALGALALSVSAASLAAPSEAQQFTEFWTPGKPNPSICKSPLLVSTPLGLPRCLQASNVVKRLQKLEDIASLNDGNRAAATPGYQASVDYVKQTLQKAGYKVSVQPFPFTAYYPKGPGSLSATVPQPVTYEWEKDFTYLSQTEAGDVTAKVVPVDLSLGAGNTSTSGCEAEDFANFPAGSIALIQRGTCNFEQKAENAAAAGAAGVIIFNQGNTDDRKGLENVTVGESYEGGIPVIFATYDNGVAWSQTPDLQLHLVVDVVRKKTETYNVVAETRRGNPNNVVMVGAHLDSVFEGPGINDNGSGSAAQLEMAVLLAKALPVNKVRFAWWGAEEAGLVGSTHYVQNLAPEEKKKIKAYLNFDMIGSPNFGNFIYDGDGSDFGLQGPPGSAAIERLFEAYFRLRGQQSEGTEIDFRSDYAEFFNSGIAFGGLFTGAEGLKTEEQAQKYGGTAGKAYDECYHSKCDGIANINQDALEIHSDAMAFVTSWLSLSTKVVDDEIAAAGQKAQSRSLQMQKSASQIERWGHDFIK
Protocol: Aminopeptidase activity was determined spectrophotometrically primarily using amino Leu-pNA. Other commercially available pNA substrates (isoleucine, methionine, alanine, valine, proline, arginine, lysine and phenylalanine) were also assayed. Leu-pNA was incubated with enzyme (100 nM) in assay buffer (50 mM Tris, pH 8.5, 200 mM NaCl) at 25 °C. A pNA release caused an absorbance increase at 405 nm, monitored using a BMG Labtech plate reader. […] Data were plotted in GraphPad Prism (version 9) and the Michalis Menten equation was used for fitting.
Inhibition assays were carried out with the following peptides: linear-ERWGHDFIK (PaAP C-terminal residues), cyclic-ERWGHDFIK, N-acetylated and C-amidated ERWGHDFIK. IC50 values were determined by varying peptide concentration at a fixed substrate concentration (fixed at KM, (S) = 2 mM, PaAP concentration was 100 nM). […] KI values were determined by fitting the data to equation (1) (Morrison’s equation):1 v=1−Et+I+KI−Et+I+KI^2−4EtIKI/2Et where v is the velocity, Et is the total enzyme concentration, I is the concentration of inhibitor and KI is the equilibrium dissociation constant for the inhibitor. IC50 values increased when measured at increasing S, consistent with competitive inhibition.

T1 sequence (Q02PA2 37-516 A513L/Q514V/S515P): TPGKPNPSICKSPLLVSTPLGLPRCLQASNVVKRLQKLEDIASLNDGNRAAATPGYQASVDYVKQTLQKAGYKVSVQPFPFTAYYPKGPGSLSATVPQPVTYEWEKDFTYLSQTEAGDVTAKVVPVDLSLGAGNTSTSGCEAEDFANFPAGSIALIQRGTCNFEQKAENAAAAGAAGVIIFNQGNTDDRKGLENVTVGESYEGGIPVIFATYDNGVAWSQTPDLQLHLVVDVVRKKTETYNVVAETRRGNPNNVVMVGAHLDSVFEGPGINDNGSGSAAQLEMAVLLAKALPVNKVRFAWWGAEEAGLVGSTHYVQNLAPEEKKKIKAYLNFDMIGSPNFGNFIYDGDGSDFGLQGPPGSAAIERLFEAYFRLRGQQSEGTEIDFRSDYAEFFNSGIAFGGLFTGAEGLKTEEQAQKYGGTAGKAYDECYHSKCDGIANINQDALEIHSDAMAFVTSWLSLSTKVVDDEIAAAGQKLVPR

Row | Substance | substrate of / degraded by PaAP (words) [1] | IC50 plot data (PaAP_T activity at given peptide concentration) ([2]; log(I) 0) | IC50 plot data (PaAP_T activity at given peptide concentration) ([2]; log(I) 0.39794) | IC50 plot data (PaAP_T activity at given peptide concentration) ([2]; log(I) 0.69897) | IC50 plot data (PaAP_T activity at given peptide concentration) ([2]; log(I) 1) | IC50 plot data (PaAP_T activity at given peptide concentration) ([2]; log(I) 1.39794) | IC50 plot data (PaAP_T activity at given peptide concentration) ([2]; log(I) 1.69897) | IC50 plot data (PaAP_T activity at given peptide concentration) ([2]; log(I) 2) | IC50 plot data (PaAP_T activity at given peptide concentration) ([2]; log(I) 2.39794) | IC50 plot data (PaAP_T activity at given peptide concentration) ([2]; log(I) -0.30103) | IC50 plot data (PaAP_T activity at given peptide concentration) ([2]; log(I) -0.60206) | IC50 plot data (PaAP_T activity at given peptide concentration) ([2]; log(I) -1) | IC50 plot data (PaAP_T activity at given peptide concentration) ([2]; log(I) -1.30103) | further results
1 | RYLGYL: casein-derived peptide (UniProt P02662 105-110, looked up, fragment) [reference compound] | capable of processing |  |  |  |  |  |  |  |  |  |  |  |  | 
2 | Ac-ERWGHDFIK: N-terminally acetylated ERWGHDFIK | is not a substrate | 14.1847 and 14.0241 and 15.9398 | 10.4257 and 10.2008 and 11.7831 | 7.759 and 8.43 and 9.606 | 6.157 and 6.578 and 7.803 | 4.438 and 4.522 and 4.703 | 3.468 and 3.7992 and 3.497 | 2.457 and 2.349 and 2.539 | 1.727 and 1.944 and 1.78 | 21.8755 and 21.5663 and 25.7068 | 31.9277 and 31.253 and 35.5141 | 57.8715 and 59.5181 and 63.1727 | 96.8273 and 103.173 | IC50 relative to unmodified linear ERWGHDFIK ([2]; Leu-pNA assay): stronger inhibitor (lower IC50)
3 | ERWGHDFIK (head-to-tail): ERWGHDFIK peptide cyclized head-to-tail (head-to-tail cyclized) |  | 101.617 and 102.323 and 98.6769 | 100.735 and 102.44 and 95.9718 | 96.6774 and 96.207 and 104.322 | 101.558 and 102.323 and 97.1479 | 95.7365 and 95.8542 and 103.44 | 85.1514 and 85.6807 and 79.6236 | 68.1564 and 67.5684 and 61.9818 | 37.6478 and 35.5307 and 32.0024 | 93.6783 and 96.7951 and 93.6195 | 99.853 and 100.676 and 98.5004 | 98.7357 and 97.5007 and 102.499 | 86.6216 and 85.5631 and 74.2723 | inhibition of PaAP_T ([2]; Leu-pNA assay): very poor inhibitors
4 | ERLGHDFIK [… peptide with W replaced by L] |  |  |  |  |  |  |  |  |  |  |  |  |  | P0 (parent peptide, LC–MS signal) ([1]; time 0 minutes): 242839 and 266621 and 225820; P0 (parent peptide, LC–MS signal) ([1]; time 5 minutes): 120859 and 126339 and 82871.9; P0 (parent peptide, LC–MS signal) ([1]; time 10 minutes): 45005.2 and 53825.2 and 41072.7; P0 (parent peptide, LC–MS signal) ([1]; time 30 minutes): 28627.8 and 28689.7 and 21100.6; P0 (parent peptide, LC–MS signal) ([1]; time 60 minutes): 29596.5 and 28748.7 and 27907.5; P0 (parent peptide, LC–MS signal) ([1]; time 90 minutes): 29084.8 and 28644.1 and 25592.5; P0 (parent peptide, LC–MS signal) ([1]; time 120 minutes): 30548.5 and 27618.8 and 28168.1; P0 (parent peptide, LC–MS signal) ([1]; time 180 minutes): 31516.5 and 29951.1 and 28383.1; P0 (parent peptide, LC–MS signal) ([1]; time 1220 minutes): 25934 and 29596.2 and 25678.6; relative rate of degradation by PaAP ([1]; time-course assay, LC–MS): degraded at a faster rate than ERWGHDFIK
